From the nanobody polyreactivity screen of Harvey et al. (2022)

Assay: yeast display, Sf9 membrane polyspecificity reagent, FACS + sequencing; frameworks hold sequencing errors
Method in brief: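 Nanobodies came from a synthetic yeast display library in Saccharomyces cerevisiae BJ5465, induced with galactose for 36–48 hours and stained for 1 hour at 4 °C with 10% biotinylated, detergent-solubilized Sf9 membrane reagent. Cells were enriched on streptavidin microbeads and then FACS-sorted, with low and high (top ~1%) gates set on anti-HA fluorescence for expression and streptavidin fluorescence for reagent binding. Each polyreactivity label reflects the gate a clone came from. Genes were amplified by colony PCR, sequenced by MiSeq 2 × 250 and filtered by CDR length.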

## QVQLVESGGGLVQAGGSLRISCAASGRTFGSYSMGWYRQAPGNEREEVAAISLSAGSTYYADYVKGRFTISRDNAKNTVYLQMNRLKAEDTAVYYCAAGTKWYSQVYIYFYWGQGTQVTVSS
  polyreactivity (PSR sort gate): low polyreactivity

## QVQLVESGGGLVQAGGSLRLSCAASGSTFRLYAIGWYRQAPWKERELDAAISSGGTTKYADSVKGRFTISRDNAKKTVYLQMNRLKPEDTAVYYCNAVYHWGNPGEYATLPRYDYWGQGTQVTVSS
  polyreactivity (PSR sort gate): high polyreactivity

## QVQLVESGGGLVQAGGSLRLSCAASGNTFRIYAMGWYRQAPGKERELVAAISQSGGSTYYADSVKVRFTISRDNAKYTVYLQMNSLKPEDTAVYYCQLIRRGHDYWGQGTQVTVSS
  polyreactivity (PSR sort gate): high polyreactivity

## QVQLVESGGGLVQAGGSLRLSCAASGSTFYANAMGWYRQAPGKERELVAAIDWSGATTYYADSVKGRFTISRDTAKNTVYLQMNSLKPEDTAVYYCAAYRYRPHVHRYYRYDYWGQGTQVTVSS
  polyreactivity (PSR sort gate): high polyreactivity

## QVQLVESGGGLVQAGGSLRLSCAASGYTLSLNAMGWYRQAPGKEREFVARISGRGGSTYYADSVKGRFTISRDNAKNTVYLQMNSLKPEDTAVYYCAATWWPWGTDNRGMYYWGQGTQVTVSS
  polyreactivity (PSR sort gate): high polyreactivity

## QVQLVESGGGLVQAGGSLRLSCAASGSTFDYYTMGWYRQAPGKERELVAAITSGGSTNYADSVKGRFTISRDNAKNTVYLQMNSLKPEDTAVYYCAADEWYNNYNCTTYGPEYDSWGQGTQVTVSS
  polyreactivity (PSR sort gate): low polyreactivity

## QVQLVESVGGLVQAGGSLRLSCAASGRIFRYYAMGWSRQAPGKERELVAGISRGTSTYYADSVKGRFTISRDNAKNTVYLQMNSLKPEDTAVYYCAKGSIQYFRPYTFYTWGQGTQVTVSS
  polyreactivity (PSR sort gate): high polyreactivity

## QVQLVESGGGLVQAGGSLRLSCAASGRIFDQNAMGWYRQAPGKERELVAAITWSGGSTNYADSVKVRFTISRDNSKNTVYLLMNSLKTEDTAVYYCNKVSYGYSTYGYWGQGTQVTVSS
  polyreactivity (PSR sort gate): low polyreactivity

## QVQLVESGGGLVQAGGSLRLSCAASRFYTMGWYRQAPGKERELVAAISWSGGDTYYADSVKGRFTISRDNAKNTVYLQMNSLKPEDTAVYYCAKKTIGSYVHEPYYYWGQGTQVTVSS
  polyreactivity (PSR sort gate): low polyreactivity

## QVQLVESVGGFVQAGGSLRLSGAASGRTFNFNTMGWSRQAPGKERELVASITSGGSTNYADSVKVRFTISRDNAKNTVYLQMNILKPEDPAVYYCAVTVSGPYAYDYWGQGTQVTVSS
  polyreactivity (PSR sort gate): low polyreactivity

## QGQLVQSGVGLVQAGGILRLSCASSGITFASYAMGWYRPAPGKEMELVATITTGGTNTYYADSVKARFTISRDNAKNTVYLQMNSLKPEDTAVYSSAADSTQYVLSGNYDYWGQGTQVTVSS
  polyreactivity (PSR sort gate): low polyreactivity

## QVQLVESGGGLVQAGGSLRLSCAASGFIFYINAMGWYRQAPGKERELVAAINWRTGSTYYADSVKGRFTISRDNAKNTVYLLMNSLKPEDTAVYYCAAYGYWRRADTEFDYWGQGTQVTVSS
  polyreactivity (PSR sort gate): low polyreactivity

## QVQLVESGGGLVQAGGSLRLSCAASGFIFQYNAMGWYRQAPGKERELVAAITSRGGSTYYADSVKGRFTISRDNAKNTVFLQMNSLKPEDTAVYYCATRRSYLADYWGQGTQVTVSS
  polyreactivity (PSR sort gate): high polyreactivity

## QVQLVDSGGGLVQAGGSISLSCAPSGFTIVGNAMGWYRLAPGKERELVAAISSGDDTNDADSVKGRFTISRDNAKNTVYLQMYSLKPEDTAVYYCAAAYYYYVSGWFDYWGQGTQVTVSS
  polyreactivity (PSR sort gate): low polyreactivity

## QVQLVESGGGLVQAGGSLRLICAASGRIFGYYAMGWYRQAPGKERELVATITFGGGSSYYADSVKGRFTISRDNAKNTVNLQMNSLKPEDTAVYYCAAVSGYLGIYGDEYSWGQGTQVTVSS
  polyreactivity (PSR sort gate): low polyreactivity

## QVQLVESGGGLVQAGGSLRLSCAASGFIFQTNVMGWYRQAPGKERELVAAISSGDSTYYADSVKGRFTISRDNAKNTVYLQLNSLKPEDTAVYYCAADVLGTTTTVGGFNYWGQGTQVTVSS
  polyreactivity (PSR sort gate): low polyreactivity

## QVQLVESGGGLVQAGGSLRLSCAASGSIFGWYAMGLYRQAPGKERELVAAITFSSVSTYYADSVKGRFTISRDNAKNTVYLQMNSLKPEVTAVYYCGAVVYYTFDYWVQGTQVTVSS
  polyreactivity (PSR sort gate): low polyreactivity

## QVQLVESGGGLVQAGGSLRLSCAASGYIFAGNAMGWYRQAPGKERELVAAINSDGRTYYADSVRGRFTISRDNAKNSVYLQMNSLKPEDTAVYYCAVVRFYLGDYLVEFDYWGQGTQVTVSS
  polyreactivity (PSR sort gate): low polyreactivity

## QVQLVESGGGLVQAGCSLRLSCAASGSTFRRYAMGWYRQAPGKERELVAAISGGGTSTYYADSVEGRFTISRDNAKNTVDLQMNSLKPEDTAVYYCNAKTYYARYDYWGQGTQVSVSS
  polyreactivity (PSR sort gate): high polyreactivity

## QVQLVESGGGLVQAGGSLRLSCAASGFTFGRNAMGWYRQAPGKERELVARITTGGSTNYADSVKGRFTISRDNAKNTVYLQMNSLKPEDTAVYYCAATYRSLALFWTYGYWGQGTQVTVSS
  polyreactivity (PSR sort gate): low polyreactivity

## QVQLVESGGGLVQAGGSLRLSCAASGRTFTPYTMGWYRQAPGKEREFVAAITFRGGSTYYADSVKGRFTLSRDNAKNTVYLQMNSLKPEDTAVYYCNARGHGGWGTSMYYWGQGTQVTVSS
  polyreactivity (PSR sort gate): high polyreactivity

## QVQLVESGGGLVQAGGSLRLSCAASGRIFLLNPMGWNRQATGKERELVARNSSGRTYYADSVKGRFTISRVNAKNTVYLHMKSLKPEDTAVYYCNATVSSSKYRYFYVNPYDYWGQGTQVTVSS
  polyreactivity (PSR sort gate): low polyreactivity

## QVQLVESGGGLVQAGGRLRLSCAASGLTFGGNAMGWYRQAPGKERELVAAISWSDDTTDYADSVKGLFTISRDNAKNTVYFQMNRLKPEDTAVYYCAARLPFEHVDYWGQGTQVTVSS
  polyreactivity (PSR sort gate): low polyreactivity

## QVQLVESGGGLVQAGGSLRLSCAASGITFRVYVMGWYRQAPGKERELVAAITSGTSTYYADSVKGRITISRDNAKNTVYLQMNRLKPEDTAVYYCAALIFYGDYIEYDYWGQGTQVTVSS
  polyreactivity (PSR sort gate): low polyreactivity

## QVQLVESCGGLVQAGGSLRLICAASGRTFRSYTMGWYRQAPGKERELVAAISYNCGSTYYADSVKGRFTISRDNAKNTVYLQMNSLKPEDTPVYYCAVYTIYGFYYWGQGTQVSVSS
  polyreactivity (PSR sort gate): high polyreactivity

## QVQLVESGGGLVQAGGSLRLSCAASGRTFGYNTMGWYRQAPGKERELVAVITQGVDITYYADSVKGRFTISRDNAKNTVYLQMNSLKPEDTAVYYCNTAGQDAEYDYWGQGTQVTVSS
  polyreactivity (PSR sort gate): low polyreactivity

## QVQLVESGGGLVQAGGSLRLSCAASGRIFDIYAMGWYRQAPGKERELVAGITSVGSTNYADSVKGRFTISRDNAKNTVYLQMNSLKPEDTAVYYCAKDYLKSAAPSPQGLTHYEYWGQGTQVTVSS
  polyreactivity (PSR sort gate): low polyreactivity

## QVQLVESGGGLVQAGGSLRLSCAASGSPFRTYAIGWYRQAPGKERELVASIDSTGSTNYADSVKGRFTISRDNAKNTVYLQMNCLKAEVTAVYYCAAETYSYPPFYAYDYWGQGTQVTVSS
  polyreactivity (PSR sort gate): low polyreactivity

## QVQHVESGGGLVQARGSLRLSCAASGLTFNTYAMGWYRQAPGQDRELVAAISRRGSRTYYADSVKGRFTISRDNAKNTVYLQMNSLNREDTAVYYCAAPRASGYYWGQGTQVTVSS
  polyreactivity (PSR sort gate): high polyreactivity

## QVQLVESGGGLVQAGGSLRLSCAASGSTFVGNAMGWYRQAPGKERELVAAISRTGGSTYYADSVKGRFTISRDNAKNTVYLQMNSLKPEDTAVYYCNAYTRYSSRRGIGDYWGQGTQVTVSS
  polyreactivity (PSR sort gate): high polyreactivity

## QVQLVESGGGLVQAGGSLRLSCAASGRIFHGYVMGWYRQAPGKERELVAAINQSGTSTYYADSVKGRFTISRDNAKNTVYLQMNSLKPEDTAVYYCAKDWAYRRHWVGFYYWGQGTQVTVSS
  polyreactivity (PSR sort gate): low polyreactivity

## QVQHVESGGGLVQAGGSNRLSCASSGSTFPGNAMGWYRQAPGKERELVARINDGADTNYADSVKGRFTISRDNAKNTVFLQMNSLKPEDTAVYYCAKPFYDGRTHFVSWGQGTQVTVSS
  polyreactivity (PSR sort gate): low polyreactivity

## QVQLVESGGGLVQAGGSLRLSCAASGSIFSYYVMGWYRQAPGKERELVARINWSSTSTYYADSVKGRFTISRDNAKNTVYLQMHSLKPEDTAVYYCAAAKRYGRYYEYDYWGQGTQVTVSS
  polyreactivity (PSR sort gate): high polyreactivity

## QVQLVESGGGLVQAGGSLRLSCAASGRIFRKNVMGWYRQAPGKERELVAAIRWSGGGTYYADSVKGRFTISRDNAKNTVYLQMNSLKPEDTAVYYCAAVPTSSAYDYWGQGTQVTVSS
  polyreactivity (PSR sort gate): high polyreactivity

## QVQLVESGGGLVQAGGSLRLSCAASGRTISRNTMGWYRQAPGKERELVAGITYGGDRTYYADSVKGRFTISRDNAKNTVYLQMNSLKPEDTAVYYCAAPWYWKGLRDYWGQGTQVNVSS
  polyreactivity (PSR sort gate): low polyreactivity

## QVQLVESGGGLVQAGGSLRLSCAASGFTISSYVMGWYRQAAGKEREVVAAISSSGARTYYADSVKGRFTISRDNAKNTVYLQMNSLKPEDTAVYYCAADNSPRPYDYWGQGTQVTVSS
  polyreactivity (PSR sort gate): high polyreactivity

## QVQLVESGGGLVQAGGSLRLSCAASGSIFYSYAMGWYRQAPGKEREFVAAISWSASRTYYADSVKGRFTISRDNAKNTVYLQMNSLKPADTAVYDCAARTYYNRGYYYWGQGTQVTVSS
  polyreactivity (PSR sort gate): high polyreactivity

## EEELVESGGGLVQAGGSLRLSCAASGSIFTHYAMGWYRPAPGKERELVAAISWSGGSTYYADSVKGRFTISRDNAKKTVYLQMNSLKPEDTAVYYCAAETYWGDDYWGQGTQVTVSS
  polyreactivity (PSR sort gate): high polyreactivity

## QVQLVESGGGLVQAGGSLRLSCAASGSSFDDYTMVWYRQAPGKERELVADSTESGGTTYADSVKGRFTISRDNAKNTVYLQMYSLKPVDTAVYYCNADIYISPLVQVSKGYDYWGQGTQVTVSS
  polyreactivity (PSR sort gate): low polyreactivity

## QVQLVESGGGLVQAGGSLRLSCAASGLTFSLNAMGWYRQAPGKERELVAAIRGSGGSTYYADSVKGRFTISRDNAKNTVYLQMNCLKPEDTAVYYCNADQLVWQRYGVLYEYDYWGQGTQVTVSS
  polyreactivity (PSR sort gate): high polyreactivity

## QVQLVESGGGLVQAGGSLRLSCAASGITFYEYTMGWYRQAPGKERELVAVIRKTGGSTYYADSVKGRFTISRDNAKNTVYLQMNSLKPEDTAVYYCAARKRYQRGYWGQGTLVTVSS
  polyreactivity (PSR sort gate): high polyreactivity

## QVQLVESGVGLVQAGGSLRLSCSASGSTFFGNGMGWYRQAPGKERELVAAISGGGSTHYADSVKGRFTISRDNAKNTVYLQMNSLKPEDPAVYYCSPSRDTVGRGPIQRDYWGQGTQVTVSS
  polyreactivity (PSR sort gate): low polyreactivity

## QVQLVESGGGLVQAGGSLRLSCAASGLTLAYAMGWYRQPPGKEREFVAAISSSGGSTYYADSVKGRFTISRDNAKNTVYLQMNSLKPEDTAVYYCAARTNPGRYYYRFSGGSWGQGTQVTVSS
  polyreactivity (PSR sort gate): high polyreactivity
